The source of these data is patent publication US10358663B2, “Method of production of 2,4-dihydroxybutyric acid” (ADISSEO FRANCE S.A.S., priority 2010, dated 2019).

Assay type in all cases: biochemical, Escherichia coli
Conditions in all cases: other: malate, pH 7.5, 30° C., average of at least two independent experiments

Substrate in data set [1]: O=C(O)C[C@H](O)C(=O)O
Description: Malate kinase assay, LysC E119P. The method, then:
(§1) Enzymatic assay: Aspartate or malate kinase activities were assayed by coupling ADP production in the kinase reactions to NADH oxidation in the presence of phosphoenolpyruvate, pyruvate kinase, and lactate dehydrogenase.
(§2) Aspartate (or Malate) Kinase aspartate (or malate)+ATP→4-phospho-(L)-aspartate (or 4-phospho-(L)-malate)+ADP
(§3) The assay mixture contained 50 mM Hepes (pH 7.5), 50 mM KCl, 5 mM MgCl2, 0.24 mM NADH, 0.96 mM ATP, 0.96 mM PEP, 9 μg/mL of lactate dehydrogenase (Sigma, L2500), 12.4 μg/mL pyruvate kinase (Sigma, P1506), and appropriate amounts of purified aspartate (malate) kinase. Reactions were started by adding 50 mM (L)-aspartate or (L)-malate. Enzymatic assays were carried out at 30° C. in 96-well flat bottomed microtiter plates in a final volume of 250 μL. The reactions were followed by the characteristic absorption of NADH at 340 nm in a microplate reader (BioRad 680XR).
(§4) Mutant enzymes were expressed, purified and tested for aspartate and malate kinase activity as described in Example 1.

Substrate in data set [2]: O=C(O)C[C@H](O)C(=O)O
The experiment in a line: Malate kinase assay, LysC E119C. The method, then: as §1, §2, §3, §4

Substrate in data set [3]: O=C(O)C[C@H](O)C(=O)O
The experiment in a line: Malate kinase assay, LysC E119G. The procedure: as §1, §2, §3, §4

Substrate in data set [4]: O=C(O)C[C@H](O)C(=O)O
Description: Malate kinase assay, LysC E119T. The method, then: as §1, §2, §3, §4

Substrate in data set [5]: O=C(O)C[C@H](O)C(=O)O
Description: Malate kinase assay, LysC E119Q. The procedure: as §1, §2, §3, §4

Substrate in data set [6]: O=C(O)C[C@H](O)C(=O)O
The experiment in a line: Malate kinase assay, LysC E119V. The procedure: as §1, §2, §3, §4

Substrate in data set [7]: O=C(O)C[C@H](O)C(=O)O
The experiment in a line: Malate kinase assay, LysC E119S. The procedure:
as §1, §2, §3, §4

Substrate in data set [8]: O=C(O)C[C@H](O)C(=O)O
Description: Malate kinase assay, LysC E119N. The procedure:
as §1, §2, §3, §4

The term Km denotes the substrate concentration at which the rate is half of its maximum. Broadly, the Vmax is the top rate of the reaction or transport when substrate is in excess.

B1: E. coli aspartate kinase LysC variant E119P, SEQ ID NO: 18 (Escherichia coli K-12; E119P) (protein)
chain: MSEIVVSKFGGTSVADFDAMNRSADIVLSDANVRLVVLSASAGITNLLVALAEGLEPGERFEKLDAIRNIQFAILERLRYPNVIREEIERLLENITVLAEAAALATSPALTDELVSHGPLMSTLLFVEILRERDVQAQWFDVRKVMRTNDRFGRAEPDIAALAELAALQLLPRLNEGLVITQGFIGSENKGRTTTLGRGGSDYTAALLAEALHASRVDIWTDVPGIYTTDPRVVSAAKRIDEIAFAEAAEMATFGAKVLHPATLLPAVRSDIPVFVGSSKDPRAGGTLVCNKTENPPLFRALALRRNQTLLTLHSLNMLHSRGFLAEVFGILARHNISVDLITTSEVSVALTLDTTGSTSTGDTLLTQSLLMELSALCRVEVEEGLALVALIGNDLSKACGVGKEVFGVLEPFNIRMICYGASSHNLCFLVPGEDAEQVVQKLHSNLFE
B1: in data set [1], the Km was 19.0 mM and the Vmax amounted to 0.71 µmol/mg/min.

B2: E. coli aspartate kinase LysC variant E119C, SEQ ID NO: 12 (Escherichia coli K-12; E119C) (protein)
chain: MSEIVVSKFGGTSVADFDAMNRSADIVLSDANVRLVVLSASAGITNLLVALAEGLEPGERFEKLDAIRNIQFAILERLRYPNVIREEIERLLENITVLAEAAALATSPALTDELVSHGCLMSTLLFVEILRERDVQAQWFDVRKVMRTNDRFGRAEPDIAALAELAALQLLPRLNEGLVITQGFIGSENKGRTTTLGRGGSDYTAALLAEALHASRVDIWTDVPGIYTTDPRVVSAAKRIDEIAFAEAAEMATFGAKVLHPATLLPAVRSDIPVFVGSSKDPRAGGTLVCNKTENPPLFRALALRRNQTLLTLHSLNMLHSRGFLAEVFGILARHNISVDLITTSEVSVALTLDTTGSTSTGDTLLTQSLLMELSALCRVEVEEGLALVALIGNDLSKACGVGKEVFGVLEPFNIRMICYGASSHNLCFLVPGEDAEQVVQKLHSNLFE
In the case of B2, in data set [2], the Km is on record as 19.7 mM and the Vmax is 0.97 µmol/mg/min.

B3: E. coli aspartate kinase LysC variant E119G, SEQ ID NO: 14 (Escherichia coli K-12; E119G) (protein)
chain: MSEIVVSKFGGTSVADFDAMNRSADIVLSDANVRLVVLSASAGITNLLVALAEGLEPGERFEKLDAIRNIQFAILERLRYPNVIREEIERLLENITVLAEAAALATSPALTDELVSHGGLMSTLLFVEILRERDVQAQWFDVRKVMRTNDRFGRAEPDIAALAELAALQLLPRLNEGLVITQGFIGSENKGRTTTLGRGGSDYTAALLAEALHASRVDIWTDVPGIYTTDPRVVSAAKRIDEIAFAEAAEMATFGAKVLHPATLLPAVRSDIPVFVGSSKDPRAGGTLVCNKTENPPLFRALALRRNQTLLTLHSLNMLHSRGFLAEVFGILARHNISVDLITTSEVSVALTLDTTGSTSTGDTLLTQSLLMELSALCRVEVEEGLALVALIGNDLSKACGVGKEVFGVLEPFNIRMICYGASSHNLCFLVPGEDAEQVVQKLHSNLFE
As to B3, in data set [3], the Michaelis constant (Km) turned out to be 16.0 mM and the Vmax is 0.49 µmol/mg/min.

B4: E. coli aspartate kinase LysC variant E119T, SEQ ID NO: 24 (Escherichia coli K-12; E119T) (protein)
chain: MSEIVVSKFGGTSVADFDAMNRSADIVLSDANVRLVVLSASAGITNLLVALAEGLEPGERFEKLDAIRNIQFAILERLRYPNVIREEIERLLENITVLAEAAALATSPALTDELVSHGTLMSTLLFVEILRERDVQAQWFDVRKVMRTNDRFGRAEPDIAALAELAALQLLPRLNEGLVITQGFIGSENKGRTTTLGRGGSDYTAALLAEALHASRVDIWTDVPGIYTTDPRVVSAAKRIDEIAFAEAAEMATFGAKVLHPATLLPAVRSDIPVFVGSSKDPRAGGTLVCNKTENPPLFRALALRRNQTLLTLHSLNMLHSRGFLAEVFGILARHNISVDLITTSEVSVALTLDTTGSTSTGDTLLTQSLLMELSALCRVEVEEGLALVALIGNDLSKACGVGKEVFGVLEPFNIRMICYGASSHNLCFLVPGEDAEQVVQKLHSNLFE
Regarding B4, in data set [4], the Km worked out at 26.8 mM and the Vmax is 0.33 µmol/mg/min.

B5: E. coli aspartate kinase LysC variant E119Q, SEQ ID NO: 20 (Escherichia coli K-12; E119Q) (protein)
chain: MSEIVVSKFGGTSVADFDAMNRSADIVLSDANVRLVVLSASAGITNLLVALAEGLEPGERFEKLDAIRNIQFAILERLRYPNVIREEIERLLENITVLAEAAALATSPALTDELVSHGQLMSTLLFVEILRERDVQAQWFDVRKVMRTNDRFGRAEPDIAALAELAALQLLPRLNEGLVITQGFIGSENKGRTTTLGRGGSDYTAALLAEALHASRVDIWTDVPGIYTTDPRVVSAAKRIDEIAFAEAAEMATFGAKVLHPATLLPAVRSDIPVFVGSSKDPRAGGTLVCNKTENPPLFRALALRRNQTLLTLHSLNMLHSRGFLAEVFGILARHNISVDLITTSEVSVALTLDTTGSTSTGDTLLTQSLLMELSALCRVEVEEGLALVALIGNDLSKACGVGKEVFGVLEPFNIRMICYGASSHNLCFLVPGEDAEQVVQKLHSNLFE
Consider B5, for which, in data set [5], the Km stood at 39.9 mM and the Vmax worked out at 0.01 µmol/mg/min.

B6: E. coli aspartate kinase LysC variant E119V, SEQ ID NO: 26 (Escherichia coli K-12; E119V) (protein)
chain: MSEIVVSKFGGTSVADFDAMNRSADIVLSDANVRLVVLSASAGITNLLVALAEGLEPGERFEKLDAIRNIQFAILERLRYPNVIREEIERLLENITVLAEAAALATSPALTDELVSHGVLMSTLLFVEILRERDVQAQWFDVRKVMRTNDRFGRAEPDIAALAELAALQLLPRLNEGLVITQGFIGSENKGRTTTLGRGGSDYTAALLAEALHASRVDIWTDVPGIYTTDPRVVSAAKRIDEIAFAEAAEMATFGAKVLHPATLLPAVRSDIPVFVGSSKDPRAGGTLVCNKTENPPLFRALALRRNQTLLTLHSLNMLHSRGFLAEVFGILARHNISVDLITTSEVSVALTLDTTGSTSTGDTLLTQSLLMELSALCRVEVEEGLALVALIGNDLSKACGVGKEVFGVLEPFNIRMICYGASSHNLCFLVPGEDAEQVVQKLHSNLFE
Consider B6, for which, in data set [6], the Km is 39.7 mM and the maximum rate (Vmax) was found to be 0.29 µmol/mg/min.

B7: E. coli aspartate kinase LysC variant E119S, SEQ ID NO: 22 (Escherichia coli K-12; E119S) (protein)
chain: MSEIVVSKFGGTSVADFDAMNRSADIVLSDANVRLVVLSASAGITNLLVALAEGLEPGERFEKLDAIRNIQFAILERLRYPNVIREEIERLLENITVLAEAAALATSPALTDELVSHGSLMSTLLFVEILRERDVQAQWFDVRKVMRTNDRFGRAEPDIAALAELAALQLLPRLNEGLVITQGFIGSENKGRTTTLGRGGSDYTAALLAEALHASRVDIWTDVPGIYTTDPRVVSAAKRIDEIAFAEAAEMATFGAKVLHPATLLPAVRSDIPVFVGSSKDPRAGGTLVCNKTENPPLFRALALRRNQTLLTLHSLNMLHSRGFLAEVFGILARHNISVDLITTSEVSVALTLDTTGSTSTGDTLLTQSLLMELSALCRVEVEEGLALVALIGNDLSKACGVGKEVFGVLEPFNIRMICYGASSHNLCFLVPGEDAEQVVQKLHSNLFE
Take B7: in data set [7], the Km is recorded as 15.7 mM and the Vmax is 0.83 µmol/mg/min.

B8: E. coli aspartate kinase LysC variant E119N, SEQ ID NO: 16 (Escherichia coli K-12; E119N) (protein)
chain: MSEIVVSKFGGTSVADFDAMNRSADIVLSDANVRLVVLSASAGITNLLVALAEGLEPGERFEKLDAIRNIQFAILERLRYPNVIREEIERLLENITVLAEAAALATSPALTDELVSHGNLMSTLLFVEILRERDVQAQWFDVRKVMRTNDRFGRAEPDIAALAELAALQLLPRLNEGLVITQGFIGSENKGRTTTLGRGGSDYTAALLAEALHASRVDIWTDVPGIYTTDPRVVSAAKRIDEIAFAEAAEMATFGAKVLHPATLLPAVRSDIPVFVGSSKDPRAGGTLVCNKTENPPLFRALALRRNQTLLTLHSLNMLHSRGFLAEVFGILARHNISVDLITTSEVSVALTLDTTGSTSTGDTLLTQSLLMELSALCRVEVEEGLALVALIGNDLSKACGVGKEVFGVLEPFNIRMICYGASSHNLCFLVPGEDAEQVVQKLHSNLFE
Regarding B8, in data set [8], the Km was 27.1 mM and the Vmax was 0.13 µmol/mg/min.
